These results are taken from patent publication US20120020878A1, “FUSOGENIC PROPERTIES OF SAPOSIN C AND RELATED PROTEINS AND PEPTIDES FOR APPLICATION TO TRANSMEMBRANE DRUG DELIVERY SYSTEMS” (CHILDREN'S HOSPITAL MEDICAL CENTER, priority 2008, published 2012).

The test system of one assay is tumors. The experiment in a line: Tumor imaging experiments with SapC peptide nanovesicles. The class given is in vivo, mice. Conditions: peptide in phospholipid (e.g., DOPS) nanovesicles. From the text:
The nanovesicles are stable and relatively uncomplicated to make. […] For example, our fluorophore-nanovesicles offer a rapid and precise imaging method for seeing and measuring the change in tumor size of living mice. The tissue-homing, imaging nanovescicles of the present invention enable the researchers and physicians to determine the location and size of a broad range of tumors, including hidden, metastatic tumors.
Several saposin C peptides were synthesized to test their activity in the nanovesicles. […] In one embodiment, the peptide comprises one of more sequences selected from the groups MCS, LCS, and VCS within the peptide sequence. In certain embodiments, amino acids, such as Lys or Cys, are required for the tumor-homing effect.

A short description of assay [1]: Fusion mechanism study with preformed saposin C-PS(18:1,1) liposome complexes. As to the method:
Protein conformational changes are thought to play a role in protein-mediated membrane fusion. This fusion mechanism is evaluated using saposin C-dependent membrane fusion. First, saposin C-PS(18:1,1) liposome complexes are formed. In this saposin C-anchored membrane, protein conformation is altered. This complex is stable from pH 3 to 10, and in low concentrations of SDS solution.
Since the Trp in saposin C(0W) is embedded inside of lipid bilayer, the change of its signal is indicative of that the surrounding environment of Trp has been changed. After about 20 to 30 ms, Trp fluorescence signal decreases to the starting level. […] Shortly after this, the signal drops back to starting level signaling on end of the fusion process. […] Therefore, a conformational change of saposin C upon lipid binding is […] for its fusogenic activity.

Assay [2] deals with cultured mouse cortical and hippocampal neurons. The experiment in a line: Transport into cultured neurons. Conditions: facilitated by complexes with DOPS liposomes. The format is cell-based. On the procedure: Saposin C can be transported into endosomal and lysosomal compartments using saposin-C liposomes containing long-chain anionic phospholipids. This method can be used for the treatment of neurological diseases including, for example, those in which MVB accumulation contributes to pathology and progression of disease.
Primary Cortical Neuron Cultures—Cortical neurons are cultured in serum-free Neuroblasal medium with B27 supplements as described by Whitmarsh et al.^44 Take out E16 mouse embryos, cut the head and place them into ice-cold Ca/Mg-free Hank Balance Salt Solution (HBSS) with papain (1 mg/ml). The brain is dissected out and place scalpel along the dorsal midline between the two cerebral hemispheres but slightly deviate towards to the side as it cut. This will give a clean cerebral cortex. Peel out the meninges gently without touching the medial side of the cortex where the hippocampus is located. Cut out the cortex with curved fine surgical scissors and collect them in ice-cold HBSS. The cortical tissue is replaced in papain HBSS solution for 15-20 minutes at room temperature to soften up the tissues. Transfer them to papain-inhibitor solution for another 5 minutes at room temperature and finally back to 2 ml ice-cold HBSS. Fisherbran 12-546 (18CIR-2) coverglasses in 12-well plate are coated with PEI containing laminin overnight. […]

The target of another assay is T1, acid β-glucosidase (Homo sapiens, UniProt P04062).
T1 sequence (P04062 40-536): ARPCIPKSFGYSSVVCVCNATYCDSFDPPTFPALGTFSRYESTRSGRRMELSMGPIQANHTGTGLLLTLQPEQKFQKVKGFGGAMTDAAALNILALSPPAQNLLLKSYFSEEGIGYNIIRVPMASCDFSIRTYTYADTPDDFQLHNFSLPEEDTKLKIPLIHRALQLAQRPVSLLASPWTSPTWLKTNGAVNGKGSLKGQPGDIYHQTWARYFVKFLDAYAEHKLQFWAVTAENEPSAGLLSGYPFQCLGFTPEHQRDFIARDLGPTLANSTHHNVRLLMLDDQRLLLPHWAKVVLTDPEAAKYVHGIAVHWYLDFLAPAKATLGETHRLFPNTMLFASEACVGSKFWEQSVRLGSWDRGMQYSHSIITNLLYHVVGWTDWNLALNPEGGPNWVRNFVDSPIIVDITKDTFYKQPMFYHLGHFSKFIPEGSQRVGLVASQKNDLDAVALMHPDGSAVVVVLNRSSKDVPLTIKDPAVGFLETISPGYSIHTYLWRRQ
The assay is described as follows: Activation of acid β-glucosidase in liposomal reconstitution system. The format is biochemical. As to the method: Functional saposins were overexpressed in BL21(DE3) cells using a pET 21a series vector. Following IPTG induction at 37° C. or 30° C., large amounts of saposins containing His•Tag were found in the soluble fraction of the disrupted cells. These were conveniently purified to electrophoretic homogeneity on nickel-loaded columns. Alternatively, saposins without His•Tag were generated by introducing a stop codon after protein coding region, and then purified using immuno-affinity columns with T7-taq monoclonal antibody. […] Circular dichroism spectra, light scattering, and ES_MS analyses were used to evaluate the physical properties of the purified saposins, such as aggregation status and molecular weight. Trp-saposins without His•Tag were also generated for necessary control experiments. The functional integrity of recombinant saposin C is determined using delipidated and homogenous acid β-glucosidase in a liposomal reconstitution system and in neuritogenic assays. Recombinant saposin B function is determined using a sulfatide binding assay.

Assay [3] can be described thus: Vesicle size change determination (N4 plus submicron particle sizer). The text has this: The amino acid residues 51-67 are necessary, but not sufficient, for its optimal enzymatic activation function. The disulfide structure and conformational alteration of saposin C upon lipid binding are also required for this activity. Three approaches are used for this study: (1) stopped-flow monitoring reduction of self-quenching resulting from fusion of fluorescence probe-containing vesicle with non-fluorescent vesicle induced by saposin C; (2) monitoring the lipid vesicle size changes upon addition of saposin C to vesicles, the size distribution as determined using N4 plus submicron particle sizer (Coulter Co.); (3) monitoring intrinsic fluorescence of Trp-saposin C change during liposomal fusion.
Electron microscopy (EM) is used for vesicle fusion analysis, since the size of fused vesicles is bigger than those of non-fused. N4 plus submicron particle size is used to estimate particle sizes in the range of 3 nm to 3 um since most liposomes fit in this range. Sonication conditions with a cup sonicator give mono-dispersed BPS-liposomes with ˜200 nm in size. Upon addition of saposin C, these vesicles change to a larger size up to 2-3 um. The size increase is related to vesicles fusion as shown by the above dequenching experiments.
Saposin C promotes the size changes at ˜50 nM concentration. To define the regions responsible for this fusion property, peptides containing only 50% of the NH2-terminal or 50% of the COOH-terminal halves in saposin C are tested. Both peptides show fusion activity.

A short description of assay [4]: R18 dequenching stopped-flow membrane fusion assay. The following applies: R18-labeled and unlabeled PS(18:1,1) vesicles. The text has this: Fluorescence probes have been widely used to determine membrane fusion, such as fluorescence dequenching, and fluorescence resonance energy transfer (FET), and can be used for quantitative and kinetics analyses. The dequenching approach is used to investigate saposin C's fusogenic activity. Octadecyl rhodamine B (R18) is selected as fluorescence probe and is entrapped in internal aqueous compartment of liposomal vesicles by co-sonication with BPS or PS(18:1,1).
Fluorescence increase (dequenching) of R18 occurs upon R18 concentration decreases. After non-labeled and labeled vesicles fuse, the R18 concentration is diluted, resulting in an increase in intensity of fluorescence. R18-labeled vesicles (lipid:R18=96:4, mol:mol) are mixed with the same lipid vesicles without fluorescence probe. Stopped-flow assays are conducted to quickly mix these vesicles with saposin C or Ca^2+ ion. Time-trace curves are generated for kinetic analysis.

Assay [5] is described as follows: Stopped-flow Trp fluorescence of saposin C/liposome complex formation. The format is binding. Conditions: PS(18:1,1) or BPS vesicles. From the text: To investigate temporal and spatial interactions of saposins and liposomal membrane, fluorescence stopped-flow and quenching approaches are used with Trp as the intrinsic fluorescence probe of the saposins. These experiments allow identification of regional interactions between saposins and lipid bilayers, and also the kinetics of their binding.
This binding induces change is lipid-concentration dependent and requires at least one unsaturated fatty acid chain. To evaluate the kinetics of this interaction, stopped-flow experiments are conducted the change in fluorescence during saposin C/liposome complex formation is monitored. When saposin C(0W) is mixed with PS(18:1,1) or BPS vesicles, fluorescence of Trp is increased, but the time course of this change is undetectable due to limitation of the machine's capability. Apparently, the interaction of saposin C and unsaturated PS containing membranes occurs within at least 10 ms.

Turning to EKEILDAFDKMCSKLPK [Saposin E24-K41], the tumor-homing function result in the assay with tumors is recorded as “optimal tumor-homing function”.
The same measure, in the same setting: as for “EVCEFLVKEVTKLIDNNKTEKEILDAFDKMCSKLP [Saposin E6-P40, SapC peptide E6-P40]”, the entry is “tumor-homing function”; as for FDKMCSKLPK [F32 to K41], “tumor-homing function”; as for “KSLSEECQEVVDTYGSSILSILLEEVSPELVCSMLHLCSG [Saposin K41-G80, SapC peptide K41-G80]”, “tumor-homing function”.
“SPELVCSMLHLCSG [Saposin S67-G80, SapC peptide S67-G80]”: the tumor-homing function result in the assay on tumors was “tumor-homing function”.

B1: Saposin C: saposin C (SapC, a small lysosomal protein, 80 AA); recombinant, produced in E. coli (protein)
chain: SDVYCEVCEFLVKEVTKLIDNNKTEKEILDAFDKMCSKLPKSLSEECQEVVDTYGSSILSILLEEVSPELVCSMLHLCSG
modifications: left off: small tags and cut ends
notes: saposin C (SapC, a small lysosomal protein, 80 AA); recombinant, produced in E. coli
For the molecule B1, in assay [1], the “fusogenic activity when bound to lipid membrane” value is reported as “retains the fusogenic activity”. The transport into neurons entry in assay [2] was “transported into the cultured mouse cortical and hippocampal neurons”. In addition, the “activation of acid β-glucosidase” value with acid β-glucosidase (purified recombinant protein) is listed as “excellent activation”. Moreover, the “concentration that promotes the size changes” value in assay [3] is recorded as roughly 50 nM. In addition, in assay [3] (mono-dispersed BPS-liposomes of ˜200 nm before addition), the “vesicle size upon addition of saposin C” value is 2-3 um. The vesicle size change entry in assay [3] (pH 4.7, 10 min period) is “enlarges vesicle size”; in assay [3] (pH 7.4, 10 min period), “not”. The “kinetics of induced membrane fusion” value in assay [4] was “the same kinetics as those with Ca^2+”. For the same molecule, in assay [5], the “time within which interaction with unsaturated PS containing membranes occurs” value is no more than 10 ms.

B2: saposin C(S37W): saposin C with a Trp at residue 37 (i.e., in the middle) (protein, UniProt P07602 311-390, looked up, variant S37W)
Saposin-C: SDVYCEVCEFLVKEVTKLIDNNKTEKEILDAFDKMCWKLPKSLSEECQEVVDTYGSSILSILLEEVSPELVCSMLHLCSG
modifications: Saposin-C
Turning to B2, in the assay with acid β-glucosidase, the “effect of Trp substitution on activation properties” value is on record as “no effect”.
